From publication PMC11987601 come the findings set out here.

pKd: −log10 of the molar value. Where “and” joins values, the source holds several entries; their conditions need not be identical. Equal entries are not always repeated.

Experiment [1] addresses His6-SeSepF (Spiroplasma eriocheiris SepF) (Spiroplasma eriocheiris). Kind of experiment: BLI; as a1, in the presence of GTP. A general note: BLI is a label-free optical method that tracks binding on a fibre tip over time.
The target is the same in experiment [2]. Put plainly: BLI; His6-SeSepF immobilised on Ni-NTA biosensor tips (10 ug/ml), SeFtsZ or SeFtsZ L272E as analyte (0-100 ug/ml); Octet N1; 50 mM Tris-HCl pH 7.4, 100 mM KCl, 10 mM MgCl2, 0.02% Tween-20; no nucleotide (apo).
Experiment [3] has as its target His6-SeFtsZ (Spiroplasma eriocheiris FtsZ) (Spiroplasma eriocheiris).

His6-SeSepF (Spiroplasma eriocheiris SepF) (Spiroplasma eriocheiris), sequence (partner, as listed by the source): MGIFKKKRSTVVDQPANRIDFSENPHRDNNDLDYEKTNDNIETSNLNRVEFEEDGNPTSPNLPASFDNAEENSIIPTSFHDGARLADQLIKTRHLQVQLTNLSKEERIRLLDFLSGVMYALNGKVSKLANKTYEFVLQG

As for “SeFtsZ L272E mutant (from UniProt A0A0H3XMR3 1-411) (natural protein)”, the pKd in experiment [1] was 6.15; in experiment [2] it was 6.01.
As for “His6-SeSepF (Spiroplasma eriocheiris SepF) (natural protein)”, the SeFtsZ retrieved from the pellet fraction with GTP after mixing with SeSepF (sedimentation assay of polymerization; 16% without SeSepF) in experiment [3] came to 28%.
As for “Spiroplasma eriocheiris FtsZ, His-tag removed (from UniProt A0A0H3XMR3 1-411) (natural protein)”, the pKd in experiment [1] is 4.27; in experiment [2], 5.98 and 5.95.

In general, pKd refers to the negative decadic logarithm of the Kd, by convention in mol/L.
